Results taken from US20230158141A1 (YAFEI SHANGHAI BIOLOG MEDICINE SCIENCE AND TECHNOLOGY, published 2023).

T1: IL-10R1-Fc (UniProt Q13651 22-235, limits assumed)
T1 sequence (looked up): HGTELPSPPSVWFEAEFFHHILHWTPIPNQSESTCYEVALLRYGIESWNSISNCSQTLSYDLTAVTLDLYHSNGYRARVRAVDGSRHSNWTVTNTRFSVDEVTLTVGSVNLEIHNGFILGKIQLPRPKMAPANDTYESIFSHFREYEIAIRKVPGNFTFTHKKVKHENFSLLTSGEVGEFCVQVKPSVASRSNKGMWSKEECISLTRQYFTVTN

T2: IL-10R2-Fc/His (UniProt Q08334 20-220, limits assumed)
T2 sequence (looked up): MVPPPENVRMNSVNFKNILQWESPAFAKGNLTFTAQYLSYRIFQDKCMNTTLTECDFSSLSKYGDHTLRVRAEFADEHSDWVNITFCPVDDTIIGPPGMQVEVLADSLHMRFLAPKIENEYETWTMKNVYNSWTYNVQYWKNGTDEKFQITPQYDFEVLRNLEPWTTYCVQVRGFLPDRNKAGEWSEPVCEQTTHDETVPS


How the values were obtained:
[1] = target: T1, IL-10R1-Fc; assay: ELISA, IL-10R1-Fc coated
[2] = target: T2, IL-10R2-Fc/His; assay: ELISA, IL-10R2-Fc/His coated

| Binder | Binding recovery (>60%) [1] | Binding recovery (>60%) [2] | Decreased fold of binding to ligand after Conjugating with S48 [2] | Decreased fold of binding to ligand after Conjugating with S48 [1] |
| --- | --- | --- | --- | --- |
| IL-10 Arg24Cys-R4-20 (ligand, human, UniProt P22301 19-178, looked up, R4-20 on Cys 24, mature) SPGQGTQSENSCTHFPGNLPNMLCDLRDAFSRVKTFFQMKDQLDNLLLKESLLEDFKGYLGCQALSEMIQFYLEEVMPQAENQDPDIKAHVNSLGENLKTLRLRLRRCHRFLPCENKSKAVEQVKNAFNKLQEKGIYKAMSEFDIFINYIEAYMTMKIRN | 90% | 98.1% |  |  |
| IL-10 Arg24Cys-S48 (ligand, human, UniProt P22301 19-178, looked up, S48 on Cys 24, mature) SPGQGTQSENSCTHFPGNLPNMLCDLRDAFSRVKTFFQMKDQLDNLLLKESLLEDFKGYLGCQALSEMIQFYLEEVMPQAENQDPDIKAHVNSLGENLKTLRLRLRRCHRFLPCENKSKAVEQVKNAFNKLQEKGIYKAMSEFDIFINYIEAYMTMKIRN |  |  | 9 fold | 33 fold |
| IL-10 Arg32Cys-R4-7 (ligand, human, UniProt P22301 19-178, looked up, R4-7 on Cys 32, mature) SPGQGTQSENSCTHFPGNLPNMLRDLRDAFSCVKTFFQMKDQLDNLLLKESLLEDFKGYLGCQALSEMIQFYLEEVMPQAENQDPDIKAHVNSLGENLKTLRLRLRRCHRFLPCENKSKAVEQVKNAFNKLQEKGIYKAMSEFDIFINYIEAYMTMKIRN | 90.4% | 89.6% |  |  |
| IL-10 Arg107Cys-S48 (ligand, human, UniProt P22301 19-178, looked up, S48 on Cys 107, mature) SPGQGTQSENSCTHFPGNLPNMLRDLRDAFSRVKTFFQMKDQLDNLLLKESLLEDFKGYLGCQALSEMIQFYLEEVMPQAENQDPDIKAHVNSLGENLKTLRLRLRCCHRFLPCENKSKAVEQVKNAFNKLQEKGIYKAMSEFDIFINYIEAYMTMKIRN |  |  | 5 fold | 3 fold |
| IL-10 Arg104Cys-S48 (ligand, human, UniProt P22301 19-178, looked up, S48 on Cys 104, mature) SPGQGTQSENSCTHFPGNLPNMLRDLRDAFSRVKTFFQMKDQLDNLLLKESLLEDFKGYLGCQALSEMIQFYLEEVMPQAENQDPDIKAHVNSLGENLKTLRLCLRRCHRFLPCENKSKAVEQVKNAFNKLQEKGIYKAMSEFDIFINYIEAYMTMKIRN |  |  | 6 fold | 3 fold |
| IL-10 Asn18Cys-S48 (ligand, human, UniProt P22301 19-178, looked up, S48 on Cys 18, mature) SPGQGTQSENSCTHFPGCLPNMLRDLRDAFSRVKTFFQMKDQLDNLLLKESLLEDFKGYLGCQALSEMIQFYLEEVMPQAENQDPDIKAHVNSLGENLKTLRLRLRRCHRFLPCENKSKAVEQVKNAFNKLQEKGIYKAMSEFDIFINYIEAYMTMKIRN |  |  | 4 fold | 12 fold |
| IL-10 Asn21Cys-S48 (ligand, human, UniProt P22301 19-178, looked up, S48 on Cys 21, mature) SPGQGTQSENSCTHFPGNLPCMLRDLRDAFSRVKTFFQMKDQLDNLLLKESLLEDFKGYLGCQALSEMIQFYLEEVMPQAENQDPDIKAHVNSLGENLKTLRLRLRRCHRFLPCENKSKAVEQVKNAFNKLQEKGIYKAMSEFDIFINYIEAYMTMKIRN |  |  | 6 fold | 7 fold |
| IL-10 Asn21Cys-R4-18 (ligand, human, UniProt P22301 19-178, looked up, R4-18 on Cys 21, mature) SPGQGTQSENSCTHFPGNLPCMLRDLRDAFSRVKTFFQMKDQLDNLLLKESLLEDFKGYLGCQALSEMIQFYLEEVMPQAENQDPDIKAHVNSLGENLKTLRLRLRRCHRFLPCENKSKAVEQVKNAFNKLQEKGIYKAMSEFDIFINYIEAYMTMKIRN | 99.7% | 85.3% |  |  |

The remaining lines, values ahead:

| Binding recovery (>60%) [1] | Binding recovery (>60%) [2] | Decreased fold of binding to ligand after Conjugating with S48 [2] | Decreased fold of binding to ligand after Conjugating with S48 [1] | Binder |
| --- | --- | --- | --- | --- |
|  |  | 3 fold |  | IL-10 Phe15Cys-S48 (ligand, human, UniProt P22301 19-178, looked up, S48 on Cys 15, mature) SPGQGTQSENSCTHCPGNLPNMLRDLRDAFSRVKTFFQMKDQLDNLLLKESLLEDFKGYLGCQALSEMIQFYLEEVMPQAENQDPDIKAHVNSLGENLKTLRLRLRRCHRFLPCENKSKAVEQVKNAFNKLQEKGIYKAMSEFDIFINYIEAYMTMKIRN |
| 94.5% | 80.7% |  |  | IL-10 Asn97Cys-R4-18 (ligand, human, UniProt P22301 19-178, looked up, R4-18 on Cys 97, mature) SPGQGTQSENSCTHFPGNLPNMLRDLRDAFSRVKTFFQMKDQLDNLLLKESLLEDFKGYLGCQALSEMIQFYLEEVMPQAENQDPDIKAHVNSLGECLKTLRLRLRRCHRFLPCENKSKAVEQVKNAFNKLQEKGIYKAMSEFDIFINYIEAYMTMKIRN |
|  |  | 3 fold |  | IL-10 Phe36Cys-S48 (ligand, human, UniProt P22301 19-178, looked up, S48 on Cys 36, mature) SPGQGTQSENSCTHFPGNLPNMLRDLRDAFSRVKTCFQMKDQLDNLLLKESLLEDFKGYLGCQALSEMIQFYLEEVMPQAENQDPDIKAHVNSLGENLKTLRLRLRRCHRFLPCENKSKAVEQVKNAFNKLQEKGIYKAMSEFDIFINYIEAYMTMKIRN |
|  |  | 3 fold |  | IL-10 Val33Cys-S48 (ligand, human, UniProt P22301 19-178, looked up, S48 on Cys 33, mature) SPGQGTQSENSCTHFPGNLPNMLRDLRDAFSRCKTFFQMKDQLDNLLLKESLLEDFKGYLGCQALSEMIQFYLEEVMPQAENQDPDIKAHVNSLGENLKTLRLRLRRCHRFLPCENKSKAVEQVKNAFNKLQEKGIYKAMSEFDIFINYIEAYMTMKIRN |
|  |  | 7 fold | 8 fold | IL-10 His90Cys-S48 (ligand, human, UniProt P22301 19-178, looked up, S48 on Cys 90, mature) SPGQGTQSENSCTHFPGNLPNMLRDLRDAFSRVKTFFQMKDQLDNLLLKESLLEDFKGYLGCQALSEMIQFYLEEVMPQAENQDPDIKACVNSLGENLKTLRLRLRRCHRFLPCENKSKAVEQVKNAFNKLQEKGIYKAMSEFDIFINYIEAYMTMKIRN |
|  |  | 4 fold | 3 fold | IL-10 Lys119Cys-S48 (ligand, human, UniProt P22301 19-178, looked up, S48 on Cys 119, mature) SPGQGTQSENSCTHFPGNLPNMLRDLRDAFSRVKTFFQMKDQLDNLLLKESLLEDFKGYLGCQALSEMIQFYLEEVMPQAENQDPDIKAHVNSLGENLKTLRLRLRRCHRFLPCENKSCAVEQVKNAFNKLQEKGIYKAMSEFDIFINYIEAYMTMKIRN |
|  | 123% |  |  | IL-10 Thr35Cys-R4-5 (ligand, human, UniProt P22301 19-178, looked up, R4-5 on Cys 35, mature) SPGQGTQSENSCTHFPGNLPNMLRDLRDAFSRVKCFFQMKDQLDNLLLKESLLEDFKGYLGCQALSEMIQFYLEEVMPQAENQDPDIKAHVNSLGENLKTLRLRLRRCHRFLPCENKSKAVEQVKNAFNKLQEKGIYKAMSEFDIFINYIEAYMTMKIRN |
|  |  | 3 fold | 3 fold | IL-10 Lys130Cys-S48 (ligand, human, UniProt P22301 19-178, looked up, S48 on Cys 130, mature) SPGQGTQSENSCTHFPGNLPNMLRDLRDAFSRVKTFFQMKDQLDNLLLKESLLEDFKGYLGCQALSEMIQFYLEEVMPQAENQDPDIKAHVNSLGENLKTLRLRLRRCHRFLPCENKSKAVEQVKNAFNCLQEKGIYKAMSEFDIFINYIEAYMTMKIRN |
|  | 91.4% |  |  | IL-10 Val33Cys-R4-7 (ligand, human, UniProt P22301 19-178, looked up, R4-7 on Cys 33, mature) SPGQGTQSENSCTHFPGNLPNMLRDLRDAFSRCKTFFQMKDQLDNLLLKESLLEDFKGYLGCQALSEMIQFYLEEVMPQAENQDPDIKAHVNSLGENLKTLRLRLRRCHRFLPCENKSKAVEQVKNAFNKLQEKGIYKAMSEFDIFINYIEAYMTMKIRN |
